Like-named read-outs stand apart in the source and are kept apart here.
Columns and labels:
Hfq WT [1] = target: T1, Hfq WT (Escherichia coli, UniProt P0A6X3 1-102); test: fluorescence polarization
Hfq N48A [2] = target: T2, Hfq N48A (Escherichia coli, UniProt P0A6X3 1-102, N48A); test: fluorescence polarization
Hfq N28A [3] = target: T3, Hfq N28A (Escherichia coli, UniProt P0A6X3 1-102, N28A); test: fluorescence polarization
Hfq F42S = Hfq F42S (Escherichia coli, UniProt P0A6X3 1-102, F42S); test: fluorescence polarization
Hfq65 R16A/R17A = Hfq65 R16A/R17A (Escherichia coli, UniProt P0A6X3 1-65, R16A;R17A); test: NMR
Hfq N28A [4] = target: T3, Hfq N28A; test: fluorescence polarization; remark: listed apart in the source
Hfq N48A [5] = target: T2, Hfq N48A; test: fluorescence polarization; remark: listed apart in the source
Hfq N28A [6] = target: T3, Hfq N28A; test: fluorescence polarization; remark: listed apart in the source
Hfq WT [7] = target: T1, Hfq WT; test: fluorescence polarization; remark: listed apart in the source

| Binder | Kd (Hfq WT [1]) | Kd (Hfq N48A [2]) | binding result (Hfq F42S) | binding result (Hfq65 R16A/R17A) | other results |
| --- | --- | --- | --- | --- | --- |
| AUAACUA (ssRNA) [Aus (FAM)] | 22 nM | 16.8 nM | binds |  | binding signal (Hfq N28A [3]): ~6 fold weaker than WT |
| AACUAAA (ssRNA) [Ads] |  |  |  | binds |  |
| AUAACUA (ssRNA) [Aus] |  |  |  | binds |  |
| AAAAAAA (ssRNA) [A7 (FAM)] |  |  |  |  | binding signal (Hfq N28A [4]): ~40 fold weaker than WT; binding signal (Hfq N48A [5]): ~27 fold weaker than WT |
| AACUAAA (ssRNA) [Ads (FAM)] |  | 92.8 nM | binds |  | binding result (Hfq N28A [6]): binds; Kd (Hfq WT [7]): 1490 nM |
| AAUAACUAAA (ssRNA) [OxyS 65-74 10-nt] | 13 nM |  |  |  |  |

Reference: publication PMC4344510
